Reference: US8709811B2, “Materials and methods for synthesis of a flavor and aroma volatile in plants” (University of Florida Research Foundation, Inc., priority 2003, dated 2014)

Assays:
Test in all cases: Alcohol dehydrogenase activity of E. coli expressed His-tagged LePEDH on phenylacetaldehyde and related substrates (Km)
Assay type in all cases: biochemical, tomato
Conditions in all cases: other: substrate specificity of LePEDH, His tag, E. coli BL21-AI
O=C/C=C/c1ccccc1 = tested on: O=C/C=C/c1ccccc1
Protocol: (§1) The 2-phenylethanol dehydrogenase coding region of the full-length cLET2M9 was cloned in vector pDEST17 with a His tag and transformed into E. coli BL21-AI cells for inducible expression. Alcohol dehydrogenase activities on phenylacetaldehyde and several related substrates were determined.
O=Cc1ccccc1 = tested on: O=Cc1ccccc1
Protocol: as §1
O=CCc1ccccc1 = tested on: O=CCc1ccccc1
Protocol: as §1

LePEDH (tomato 2-phenylethanol dehydrogenase, full-length cLET2M9) (Solanum lycopersicum), sequence (chain, as listed by the source): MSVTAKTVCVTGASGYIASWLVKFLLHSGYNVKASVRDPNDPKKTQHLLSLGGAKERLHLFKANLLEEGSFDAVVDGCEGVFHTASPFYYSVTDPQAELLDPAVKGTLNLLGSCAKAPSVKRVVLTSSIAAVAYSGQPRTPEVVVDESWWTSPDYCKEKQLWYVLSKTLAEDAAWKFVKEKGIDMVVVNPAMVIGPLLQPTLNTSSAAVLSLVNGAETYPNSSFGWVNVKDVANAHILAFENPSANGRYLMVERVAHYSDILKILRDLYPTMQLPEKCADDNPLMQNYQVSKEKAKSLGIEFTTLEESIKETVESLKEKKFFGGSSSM

Substance “LePEDH (tomato 2-phenylethanol dehydrogenase, full-length cLET2M9) (Solanum lycopersicum)” has a Km (O=C/C=C/c1ccccc1) of 428.9 µM, a Km (O=Cc1ccccc1) of 240.1 µM and a Km (O=CCc1ccccc1) of 42.3 µM.
